Patent publication US20070244048A1 (published 2007)
No end group written: not given here.

Experiments:
Assay in all cases: 125I-hNMU-25 displacement, cell membranes
rat NMUR1-TTG = target: T1, rat NMUR1-TTG (rat, UniProt Q9JJI5 1-425)
T1 construct: whole, on cells; Cell line with the start codon (TTG) as predicted from genomic databases; also called rat R1-TTG
T1 sequence (looked up): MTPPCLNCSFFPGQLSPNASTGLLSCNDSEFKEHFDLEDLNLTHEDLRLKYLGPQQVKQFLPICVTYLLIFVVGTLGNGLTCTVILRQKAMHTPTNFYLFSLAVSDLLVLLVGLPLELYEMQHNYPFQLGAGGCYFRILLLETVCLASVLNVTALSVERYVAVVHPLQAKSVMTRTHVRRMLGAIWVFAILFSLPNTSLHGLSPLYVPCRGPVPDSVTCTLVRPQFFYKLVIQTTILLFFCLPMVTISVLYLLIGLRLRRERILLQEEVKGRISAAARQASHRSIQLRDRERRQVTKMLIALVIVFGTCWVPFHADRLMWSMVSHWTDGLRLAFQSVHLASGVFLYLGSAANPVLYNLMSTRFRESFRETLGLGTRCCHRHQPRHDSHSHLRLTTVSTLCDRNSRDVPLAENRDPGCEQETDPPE

mouse NMUR2 = target: T2, mouse NMUR2 (mouse, UniProt Q8BZ39 1-395)
T2 construct: whole, on cells; also called mouse R2
T2 sequence (Q8BZ39 whole entry): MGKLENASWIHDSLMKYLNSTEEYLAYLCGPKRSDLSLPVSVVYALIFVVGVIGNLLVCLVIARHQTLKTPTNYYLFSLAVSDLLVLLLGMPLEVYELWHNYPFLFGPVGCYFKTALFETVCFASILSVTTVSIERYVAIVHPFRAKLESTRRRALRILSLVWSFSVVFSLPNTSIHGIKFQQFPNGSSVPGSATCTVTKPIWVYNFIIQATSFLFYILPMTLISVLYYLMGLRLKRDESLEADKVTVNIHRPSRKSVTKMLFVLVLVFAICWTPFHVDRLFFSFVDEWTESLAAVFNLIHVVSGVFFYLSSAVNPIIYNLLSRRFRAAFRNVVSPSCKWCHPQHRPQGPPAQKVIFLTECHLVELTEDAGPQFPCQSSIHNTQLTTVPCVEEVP

mouse NMUR1-ATG = target: T3, mouse NMUR1-ATG (mouse, UniProt O55040 1-428)
T3 construct: whole, on cells; Cell line with engineered ATG start codon in place of the genomic CTG; also called mouse R1-ATG
T3 sequence (looked up): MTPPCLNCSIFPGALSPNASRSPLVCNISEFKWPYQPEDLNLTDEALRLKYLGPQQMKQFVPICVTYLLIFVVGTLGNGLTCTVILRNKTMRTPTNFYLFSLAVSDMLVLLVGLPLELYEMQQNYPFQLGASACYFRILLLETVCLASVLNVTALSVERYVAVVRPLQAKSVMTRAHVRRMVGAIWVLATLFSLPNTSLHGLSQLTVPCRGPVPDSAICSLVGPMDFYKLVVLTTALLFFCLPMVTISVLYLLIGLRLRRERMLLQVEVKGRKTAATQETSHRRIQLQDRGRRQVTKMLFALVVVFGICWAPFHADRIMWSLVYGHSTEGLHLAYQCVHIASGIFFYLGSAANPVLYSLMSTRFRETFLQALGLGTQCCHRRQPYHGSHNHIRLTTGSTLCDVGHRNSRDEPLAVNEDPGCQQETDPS

rat NMUR2 = target: T4, rat NMUR2 (rat, UniProt Q9ESQ4 1-395)
T4 construct: whole, on cells; also called rat R2
T4 sequence (Q9ESQ4 whole entry): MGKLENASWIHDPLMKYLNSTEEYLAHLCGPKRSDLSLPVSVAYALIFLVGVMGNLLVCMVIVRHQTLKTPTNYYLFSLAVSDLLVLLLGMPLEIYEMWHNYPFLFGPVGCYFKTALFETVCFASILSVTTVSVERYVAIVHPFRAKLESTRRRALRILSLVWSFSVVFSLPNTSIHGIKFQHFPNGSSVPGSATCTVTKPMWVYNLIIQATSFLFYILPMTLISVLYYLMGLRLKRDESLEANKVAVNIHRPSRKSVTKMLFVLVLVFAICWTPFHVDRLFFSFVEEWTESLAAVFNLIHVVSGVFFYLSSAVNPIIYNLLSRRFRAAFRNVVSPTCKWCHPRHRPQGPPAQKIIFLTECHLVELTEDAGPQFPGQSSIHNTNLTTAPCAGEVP

FRVDEEFQSPFASQSRGYFLFRPRN-NH2 (also called hNMU-25; native hNMU) [human NMU-25] was tested, and the IC50 (rat NMUR1-TTG) was 0.2 nM, the IC50 (mouse NMUR2) was 0.2 nM and the IC50 (mouse NMUR1-ATG) was 0.4 nM. For the same binder, the IC50 (rat NMUR2) was 0.6 nM.
